# According to PMC5595889:
# Molecular target: GST-tagged importin α7 lacking the IBB (human)
# Test: pull-down
substance,measurement,value
influenza A virus (H1N1 strain A/WSN/33) monomeric nucleoprotein (from UniProt P15682 1-498) (natural protein),quantity recovered relative to importin α1,2 fold
